Key:
[1] = biological target: T1, Roquin-1 zinc finger (Znf, CCCH) (UniProt Q4VGL6 411-454); test: ITC; Zn2+; ITC at room temperature, RNA titrated into 10-40 uM protein; buffer 20 mM Tris pH 7.0, 150 mM NaCl, 25 uM ZnCl2, 2 mM TCEP, 0.02% azide (stated for Znf); NMR HSQC 50 uM protein, RT, 10% D2O; details: protein: recombinant; tags: His6-GST removed by TEV; chain copies: 2; single-stranded
T1 chain: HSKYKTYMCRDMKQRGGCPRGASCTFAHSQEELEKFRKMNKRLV

[2] = biological target: T1, Roquin-1 zinc finger (Znf, CCCH); test: ITC; Zn2+; n=0.45; ITC at room temperature, RNA titrated into 10-40 uM protein; buffer 20 mM Tris pH 7.0, 150 mM NaCl, 25 uM ZnCl2, 2 mM TCEP, 0.02% azide (stated for Znf); NMR HSQC 50 uM protein, RT, 10% D2O; details: protein: recombinant; tags: His6-GST removed by TEV; chain copies: 2; single-stranded
Roquin-1 ROQ domain [3] = biological target: T2, Roquin-1 ROQ domain (UniProt Q4VGL6 171-326); test: ITC; complete loss of binding; ITC at room temperature, RNA titrated into 10-40 uM protein; buffer 20 mM Tris pH 7.0, 150 mM NaCl, 25 uM ZnCl2, 2 mM TCEP, 0.02% azide (stated for Znf); NMR HSQC 50 uM protein, RT, 10% D2O; details: protein: recombinant; tags: His6-thioredoxin, TEV-removable; single-stranded
T2 sequence: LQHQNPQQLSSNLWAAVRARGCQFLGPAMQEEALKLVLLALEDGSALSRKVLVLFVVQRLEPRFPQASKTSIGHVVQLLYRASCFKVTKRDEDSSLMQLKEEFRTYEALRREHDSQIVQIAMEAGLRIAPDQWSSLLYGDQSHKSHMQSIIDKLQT

[4] = biological target: T1, Roquin-1 zinc finger (Znf, CCCH); test: ITC; Zn2+; n=0.48; ITC at room temperature, RNA titrated into 10-40 uM protein; buffer 20 mM Tris pH 7.0, 150 mM NaCl, 25 uM ZnCl2, 2 mM TCEP, 0.02% azide (stated for Znf); NMR HSQC 50 uM protein, RT, 10% D2O; details: protein: recombinant; tags: His6-GST removed by TEV; chain copies: 2; single-stranded
Roquin-1 ROQ domain [5] = biological target: T2, Roquin-1 ROQ domain; test: ITC; n=0.81; ITC at room temperature, RNA titrated into 10-40 uM protein; buffer 20 mM Tris pH 7.0, 150 mM NaCl, 25 uM ZnCl2, 2 mM TCEP, 0.02% azide (stated for Znf); NMR HSQC 50 uM protein, RT, 10% D2O; details: protein: recombinant; tags: His6-thioredoxin, TEV-removable; single-stranded, no imino signals
[6] = biological target: T1, Roquin-1 zinc finger (Znf, CCCH); test: ITC; Zn2+; n=0.5; ITC at room temperature, RNA titrated into 10-40 uM protein; buffer 20 mM Tris pH 7.0, 150 mM NaCl, 25 uM ZnCl2, 2 mM TCEP, 0.02% azide (stated for Znf); NMR HSQC 50 uM protein, RT, 10% D2O; details: protein: recombinant; tags: His6-GST removed by TEV; chain copies: 2; single-stranded, no imino signals
[7] = biological target: T1, Roquin-1 zinc finger (Znf, CCCH); test: ITC; Zn2+; n=1.0; ITC at room temperature, RNA titrated into 10-40 uM protein; buffer 20 mM Tris pH 7.0, 150 mM NaCl, 25 uM ZnCl2, 2 mM TCEP, 0.02% azide (stated for Znf); NMR HSQC 50 uM protein, RT, 10% D2O; details: protein: recombinant; tags: His6-GST removed by TEV; chain copies: 2; single-stranded

B1: (CA)5 10-mer (ssRNA)
RNA: CACACACACA
B1: no binding [1].

B2: (GU)5 10-mer (ssRNA)
RNA: GUGUGUGUGU
Binder B2 has a Kd [2] of 52.5 ± 7.2 µM.

B3: LBE mutant (GCG) (ssRNA)
RNA: UUUUAAGCGUAUUUU
For B3, the binding result (Roquin-1 ROQ domain [3]) was “no binding” and the Kd [4] was 21.4 ± 3.6 µM.

B4: LBE (Nfkbiz 3'-UTR 15-mer) (ssRNA)
RNA: UUUUAACAUUAUUUU
For B4, the Kd (Roquin-1 ROQ domain [5]) was 3.6 ± 0.4 µM and the Kd [6] was 26.3 ± 3.4 µM.

B5: LBE 5'-half 9-mer (ssRNA)
RNA: UUUUAACAU
Binder B5 has a Kd [7] of 35.6 ± 6.8 µM.
